Reference: publication PMC2444022

Legend:
[1] = test system: LysRS wild type (lysyl-tRNA synthetase) (Escherichia coli); test: EMSA; conditions: reference; gel-retardation buffer, pH and temperature not in material
[2] = test system: LysRS(K130A) (Escherichia coli); test: EMSA; conditions: gel-retardation buffer, pH and temperature not in material
[3] = test system: LysRS(T133A) (Escherichia coli); test: EMSA; conditions: gel-retardation buffer, pH and temperature not in material
[4] = test system: LysN (anticodon-binding domain of LysRS) (Escherichia coli); conditions: gel-retardation buffer, pH and temperature not in material; cited from earlier work

| Substance | binding signal (fraction of WT bound) [1] | binding signal (fraction of WT bound) [2] | binding signal (fraction of WT bound) [3] | Kd [4] |
| --- | --- | --- | --- | --- |
| tRNALys | 1 | 0.35 | 1.17 | – |
| tRNALys (unlabeled competitor) | – | – | – | 100 µM |
